{
  "source": "patent US20140219913A1",
  "about": "(AbbVie / Abbott, published 2014)",
  "binders": {"B1": {"name": "RAB030 (other)", "VH": "LPAQVAFTPYAPEPGSTCRLREYYDQTAQMCCSKCSPGQHAKVFCTKTSDTVCDSCEDSTYTQLWNWVPECLSCGSRCSSDQVETQACTREQNRICTCRPGWYCALSKQEGCRLCAPLRKCRPGFGVARPGTETSDVVCKPCAPGTFSNTTSSTDICRPHQICNVVAIPGNASMDAVCTSTSPTRSMAPGAVHLPQPVSTRSQHTQPTPEPSTAPSTSFLLPMGPSPPAEGSTGDASTKGPQVQLQESGPGLVKPSETLSLTCTVSGFSLIGYDLNWIRQPPGKGLEWIGIIWGDGTTDYNSAVKSRVTISKDTSKNQFSLKLSSVTAADTAVYYCARGGYWYATSYYFDYWGQGTLVTVSS", "VL": "DIQMTQSPSSLSASVGDRVTITCRASQSISNNLNWYQQKPGKAPKLLIYYTSRFHSGVPSRFSGSGSGTDFTFTISSLQPEDIATYYCQQEHTLPYTFGQGTKLEIKR"}, "B2": {"name": "RAB027 (other)", "VH": "LPAQVAFTPYAPEPGSTCRLREYYDQTAQMCCSKCSPGQHAKVFCTKTSDTVCDSCEDSTYTQLWNWVPECLSCGSRCSSDQVETQACTREQNRICTCRPGWYCALSKQEGCRLCAPLRKCRPGFGVARPGTETSDVVCKPCAPGTFSNTTSSTDICRPHQICNVVAIPGNASMDAVCTSTSPTRSMAPGAVHLPQPVSTRSQHTQPTPEPSTAPSTSFLLPMGPSPPAEGSTGDASTKGPEVQLVQSGAEVKKPGASVKVSCKASGYTFTKYWLGWVRQAPGQGLEWMGDIYPGYDYTHYNEKFKDRVTLTTDTSTSTAYMELRSLRSDDTAVYYCARSDGSSTYWGQGTLVTVSS", "VL": "DVLMTQTPLSLPVTPGEPASISCTSSQNIVHSNGNTYLEWYLQKPGQSPQLLIYKVSNRFSGVPDRFSGSGSGTDFTLKISRVEAEDVGVYYCFQVSHVPYTFGGGTKVEIKR"}, "B3": {"name": "RAB028 (other)", "VH": "EVQLVQSGAEVKKPGASVKVSCKASGYTFTKYWLGWVRQAPGQGLEWMGDIYPGYDYTHYNEKFKDRVTLTTDTSTSTAYMELRSLRSDDTAVYYCARSDGSSTYWGQGTLVTVSS", "VL": "LPAQVAFTPYAPEPGSTCRLREYYDQTAQMCCSKCSPGQHAKVFCTKTSDTVCDSCEDSTYTQLWNWVPECLSCGSRCSSDQVETQACTREQNRICTCRPGWYCALSKQEGCRLCAPLRKCRPGFGVARPGTETSDVVCKPCAPGTFSNTTSSTDICRPHQICNVVAIPGNASMDAVCTSTSPTRSMAPGAVHLPQPVSTRSQHTQPTPEPSTAPSTSFLLPMGPSPPAEGSTGDTVAAPDVLMTQTPLSLPVTPGEPASISCTSSQNIVHSNGNTYLEWYLQKPGQSPQLLIYKVSNRFSGVPDRFSGSGSGTDFTLKISRVEAEDVGVYYCFQVSHVPYTFGGGTKVEIKR"}, "B4": {"name": "RAB021 (other)", "VH": "B3 VH", "VL": "AMHVAQPAVVLASSRGIASFVCEYASPGKYTEVRVTVLRQADSQVTEVCAATYMMGNELTFLDDSICTGTSSGNQVNLTIQGLRAMDTGLYICKVELMYPPPYYEGIGNGTQIYVIDPEPCPDSDQEPKSSDKTHTSPDVLMTQTPLSLPVTPGEPASISCTSSQNIVHSNGNTYLEWYLQKPGQSPQLLIYKVSNRFSGVPDRFSGSGSGTDFTLKISRVEAEDVGVYYCFQVSHVPYTFGGGTKVEIKR", "notes": "rDVD-Ig with LEA29Y on the light chain only and a QH linker; also called RAB021H; RAB021L"}, "B5": {"name": "RAB013 (other)", "VH": "AMHVAQPAVVLASSRGIASFVCEYASPGKYTEVRVTVLRQADSQVTEVCAATYMMGNELTFLDDSICTGTSSGNQVNLTIQGLRAMDTGLYICKVELMYPPPYYEGIGNGTQIYVIDPEPCPDSDASTKGPSVFPLAPEVQLVQSGAEVKKPGASVKVSCKASGYTFTKYWLGWVRQAPGQGLEWMGDIYPGYDYTHYNEKFKDRVTLTTDTSTSTAYMELRSLRSDDTAVYYCARSDGSSTYWGQGTLVTVSS", "VL": "AMHVAQPAVVLASSRGIASFVCEYASPGKYTEVRVTVLRQADSQVTEVCAATYMMGNELTFLDDSICTGTSSGNQVNLTIQGLRAMDTGLYICKVELMYPPPYYEGIGNGTQIYVIDPEPCPDSDTVAAPSVFIFPPDVLMTQTPLSLPVTPGEPASISCTSSQNIVHSNGNTYLEWYLQKPGQSPQLLIYKVSNRFSGVPDRFSGSGSGTDFTLKISRVEAEDVGVYYCFQVSHVPYTFGGGTKVEIKR", "notes": "rDVD-Ig with LEA29Y on both chains and long linkers; also called RAB013H; RAB013L"}, "B6": {"name": "RAB014 (other)", "VH": "B5 VH", "VL": "B2 VL", "notes": "rDVD-Ig with LEA29Y on the heavy chain only and a long linker; also called RAB014H; RAB014L"}, "B7": {"name": "RAB020 (other)", "VH": "AMHVAQPAVVLASSRGIASFVCEYASPGKYTEVRVTVLRQADSQVTEVCAATYMMGNELTFLDDSICTGTSSGNQVNLTIQGLRAMDTGLYICKVELMYPPPYYEGIGNGTQIYVIDPEPCPDSDQEPKSSDKTHTSPEVQLVQSGAEVKKPGASVKVSCKASGYTFTKYWLGWVRQAPGQGLEWMGDIYPGYDYTHYNEKFKDRVTLTTDTSTSTAYMELRSLRSDDTAVYYCARSDGSSTYWGQGTLVTVSS", "VL": "B2 VL", "notes": "rDVD-Ig with LEA29Y on the heavy chain only and a QH linker; also called RAB020H; RAB020L"}, "B8": {"name": "RAB015 (other)", "VH": "B3 VH", "VL": "B5 VL", "notes": "rDVD-Ig with LEA29Y on the light chain only and a long linker; also called RAB015H; RAB015L"}, "B9": {"name": "RAB019 (other)", "VH": "B7 VH", "VL": "B4 VL", "notes": "rDVD-Ig with LEA29Y on both chains and QH linkers; also called RAB019H; RAB019L"}},
  "key": {"TNF-alpha": {"target": "TNF-alpha", "experiment": "cell-based or functional assay"}, "NGF": {"target": "NGF", "experiment": "cell-based or functional assay"}, "[1]": {"target": "T1, Recombinant human B7-1/CD80 Fc chimera (Cat. 140-B1-100, R&D Systems) (human, UniProt P33681 35-242)", "T1 construct": "extracellular domain; also called B7-1 antigen; Fc part of the bought chimera not given; not described", "T1 sequence (looked up)": "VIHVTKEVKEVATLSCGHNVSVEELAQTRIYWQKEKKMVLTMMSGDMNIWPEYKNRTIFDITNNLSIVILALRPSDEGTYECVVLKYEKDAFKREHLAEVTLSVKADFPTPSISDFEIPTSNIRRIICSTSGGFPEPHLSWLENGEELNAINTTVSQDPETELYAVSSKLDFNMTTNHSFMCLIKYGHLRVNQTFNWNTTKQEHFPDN", "experiment": "direct bind ELISA, coated recombinant human B7-1/CD80 Fc chimera", "protocol": "Enzyme Linked Immunosorbent Assays (ELISA) to screen for antibodies that bind a desired target antigen were performed as follows. High bind ELISA plates (Corning Costar #3369, Acton, Mass.) were coated with 100 μL/well of 10 μg/ml of desired target antigen (R&D Systems, Minneapolis, Minn.) or desired target antigen extra-cellular domain/FC fusion protein (R&D Systems, Minneapolis, Minn.) or monoclonal mouse anti-polyHistidine antibody (R&D Systems #MAB050, Minneapolis, Minn.) in phosphate buffered saline (10×PBS, Abbott Bioresearch Center, Media Prep#MPS-073, Worcester, Mass.) overnight at 4° C. Plates were washed four times with PBS containing 0.02% Tween 20. Plates were blocked by the addition of 300 μL/well blocking solution (non-fat dry milk powder, various retail suppliers, diluted to 2% in PBS) for ½ hour at room temperature. Plates were washed four times after blocking with PBS containing 0.02% Tween 20.\nOne hundred microliters of 10 ng/mL goat anti-human IgG-FC specific HRP conjugated antibody (Southern Biotech #2040-05, Birmingham, Ala.) was added to each well of the desired target antigen plate or anti-polyHistidine antibody/Histidine tagged desired target antigen plate. Alternatively, one hundred microliters of 10 ng/mL goat anti-human IgG-kappa light chain specific HRP conjugated antibody (Southern Biotech #2060-05 Birmingham, Ala.) was added to each well of the desired target antigen/FC fusion plate and incubated for 1 hour at room temperature. Plates were washed 4 times with PBS containing 0.02% Tween 20.\nOne hundred microliters of enhanced TMB solution (Neogen Corp. #308177, K Blue, Lexington, Ky.) was added to each well and incubated for 10 minutes at room temperature. The reaction was stopped by the addition of 50 μL 1N sulphuric acid. Plates were read spectrophotometrically at a wavelength of 450 nm"}, "[2]": {"target": "T2, Recombinant human B7-2/CD86 Fc chimera (Cat. 141-B2-100, R&D Systems) (human, UniProt P42081 26-245)", "T2 construct": "Fc part of the bought chimera not given; not described", "T2 sequence (looked up)": "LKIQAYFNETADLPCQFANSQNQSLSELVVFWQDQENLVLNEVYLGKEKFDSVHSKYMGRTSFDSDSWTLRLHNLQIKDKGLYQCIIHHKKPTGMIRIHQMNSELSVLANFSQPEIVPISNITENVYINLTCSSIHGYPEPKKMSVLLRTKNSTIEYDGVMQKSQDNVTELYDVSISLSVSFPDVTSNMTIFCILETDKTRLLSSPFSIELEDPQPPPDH", "experiment": "competitive ELISA; coated CD28 Fc, biotinylated B7-2/CD86 Fc, construct titrated", "protocol": "(§1) ELISA plates (Nunc, MaxiSorp, Rochester, N.Y.) were incubated overnight at 4° C. with Recombinant Human CD28 Fc Chimera (Cat. #342-CD-200). Plates were washed three times in washing buffer (PBS containing 0.05% Tween 20), and blocked for 1 hour at 25° C. in blocking buffer (PBS containing 1% BSA). Wells were washed three times, and serial dilutions of each antibody or DVD-Ig in PBS containing 0.1% BSA were added to the wells and incubated at 25° C. for 1 hour. The wells were washed three times, and biotinylated antigen (2 nM) was added to the plates and incubated for 1 hour at 25° C. The wells were washed three times and incubated for 1 hour at 25° C. with streptavidin-HRP (KPL #474-3000, Gaithersburg, Md.). The wells were washed three times, and 100 μl of ULTRA-TMB ELISA (Pierce, Rockford, Ill.) was added per well. Following color development the reaction was stopped with 1N HCL and absorbance at 450 nm was measured. Recombinant human B7-1/CD80 Fc chimera (Cat. 140-B1-100, R&D Systems, Minneapolis, Minn.) was used.\nRecombinant human B7-2/CD86 Fc chimera (Cat. 141-B2-100, R&D Systems, Minneapolis, Minn.) was used."}, "[3]": {"target": "T1, Recombinant human B7-1/CD80 Fc chimera …", "experiment": "competitive ELISA; coated CD28 Fc, biotinylated B7-1/CD80 Fc (2 nM), construct titrated", "protocol": "as §1"}},
  "data": [
    {"binder": "B1", "values": [
      {"measurement": "N-terminal L929 Assay (EC50, pM)", "setting": "TNF-alpha", "value": 50, "unit": "pM"},
      {"measurement": "C-terminal Bioassay Mean (IC50, nM): Cell Impedance assay", "setting": "NGF", "value": 1.6, "unit": "nM"},
      {"measurement": "C-terminal Bioassay Mean (IC50, nM): pERK assay", "setting": "NGF", "value": 0.6, "unit": "nM"}
    ]},
    {"binder": "B2", "values": [
      {"measurement": "N-terminal L929 Assay (EC50, pM)", "setting": "TNF-alpha", "value": 30, "unit": "pM"}
    ]},
    {"binder": "B3", "values": [
      {"measurement": "N-terminal L929 Assay (EC50, pM)", "setting": "TNF-alpha", "value": 90, "unit": "pM"}
    ]},
    {"binder": "B4", "values": [
      {"measurement": "EC50", "setting": "[1]", "value": 2.5, "unit": "nM"},
      {"measurement": "EC50", "setting": "[2]", "value": 0.8, "unit": "nM"},
      {"measurement": "EC50", "setting": "[3]", "value": 2.4, "unit": "nM"}
    ]},
    {"binder": "B5", "values": [
      {"measurement": "EC50", "setting": "[1]", "value": 21.2, "unit": "nM"},
      {"measurement": "EC50", "setting": "[2]", "value": 0.5, "unit": "nM"},
      {"measurement": "EC50", "setting": "[3]", "value": 2, "unit": "nM"}
    ]},
    {"binder": "B6", "values": [
      {"measurement": "EC50", "setting": "[1]", "value": 1.5, "unit": "nM"},
      {"measurement": "EC50", "setting": "[2]", "value": 1.1, "unit": "nM"},
      {"measurement": "EC50", "setting": "[3]", "value": 1.7, "unit": "nM"}
    ]},
    {"binder": "B7", "values": [
      {"measurement": "EC50", "setting": "[1]", "value": 1.2, "unit": "nM"},
      {"measurement": "EC50", "setting": "[2]", "value": 1, "unit": "nM"},
      {"measurement": "EC50", "setting": "[3]", "value": 1.7, "unit": "nM"}
    ]},
    {"binder": "B8", "values": [
      {"measurement": "EC50", "setting": "[1]", "value": 34.9, "unit": "nM"},
      {"measurement": "EC50", "setting": "[3]", "value": 78.9, "unit": "nM"}
    ]},
    {"binder": "B9", "values": [
      {"measurement": "binding result", "setting": "[1]", "value": "no binding"}
    ]}
  ]
}
